The target in experiment [1] is human KLB and human FGFR1c co-expressed on HEK293/hKLB/hFGFR1c/SRE-luc cells (human) (UniProt Q86Z14). The experiment can be described thus: FACS on stable HEK293 cells.
Experiment [2] concerns the target full-length human KLB on HEK293/hKLB/SRE-luc cells (human) (UniProt Q86Z14). Description: FACS on stable HEK293 cells.
In experiment [3] the target is full-length human FGFR1c on HEK293/hFGFR1c/SRE-luc cells (human) (UniProt P11362). Description: FACS on stable HEK293 cells.
The target in experiment [4] is human KLB and human FGFR1c co-expressed on HEK293/hKLB/hFGFR1c/SRE-luc cells (human) (UniProt Q86Z14). The experiment can be described thus: FACS on stable HEK293 cells, secondary antibody alone.
Experiment [5] has as its target full-length human KLB on HEK293/hKLB/SRE-luc cells (human) (UniProt Q86Z14). Described as above.
For experiment [6], the target named is full-length human FGFR1c on HEK293/hFGFR1c/SRE-luc cells (human) (UniProt P11362). Described as above.
For experiment [7] the target is unchanged. Description: FACS on stable HEK293 cells, secondary antibody alone; row shifted one column to the left (c3 = 293/hFGFR1c).
The target of experiment [8] is human KLB and human FGFR1c co-expressed on HEK293/hKLB/hFGFR1c/SRE-luc cells (human) (UniProt Q86Z14). Description: FACS on stable HEK293 cells, secondary antibody alone; row shifted one column to the left (c4 = 293/hFGFR1c/hKLB).
Experiment [9] addresses mouse KLB and mouse FGFR1c co-expressed on HEK293/mKLB/mFGFR1c/SRE-Luc cells (mouse). The experiment can be described thus: FACS on stable HEK293 cells, secondary antibody alone; row shifted one column to the left (c5 = 293/mFGFR1c/mKLB).
Experiment [10] has as its target full-length human FGFR1c on HEK293/hFGFR1c/SRE-luc cells (human) (UniProt P11362). Description: cell-based or functional assay.
For experiment [11], the target named is cell-surface human FGFR1c alone (amino acids 1-731 of NP_075594) on HEK293/hFGFR1c/SRE-Luc cells of Example 19 (human) (UniProt P11362). The experiment can be described thus: cell-based or functional assay.

Values joined by “and” are separate entries in the source; they are usually repeats but may differ in a detail not shown here. Equal values may be shown once.

Chain of full-length human FGFR1c on HEK293/hFGFR1c/SRE-luc cells (human) (P11362 other isoform, or with tags, fused parts or gaps limits assumed): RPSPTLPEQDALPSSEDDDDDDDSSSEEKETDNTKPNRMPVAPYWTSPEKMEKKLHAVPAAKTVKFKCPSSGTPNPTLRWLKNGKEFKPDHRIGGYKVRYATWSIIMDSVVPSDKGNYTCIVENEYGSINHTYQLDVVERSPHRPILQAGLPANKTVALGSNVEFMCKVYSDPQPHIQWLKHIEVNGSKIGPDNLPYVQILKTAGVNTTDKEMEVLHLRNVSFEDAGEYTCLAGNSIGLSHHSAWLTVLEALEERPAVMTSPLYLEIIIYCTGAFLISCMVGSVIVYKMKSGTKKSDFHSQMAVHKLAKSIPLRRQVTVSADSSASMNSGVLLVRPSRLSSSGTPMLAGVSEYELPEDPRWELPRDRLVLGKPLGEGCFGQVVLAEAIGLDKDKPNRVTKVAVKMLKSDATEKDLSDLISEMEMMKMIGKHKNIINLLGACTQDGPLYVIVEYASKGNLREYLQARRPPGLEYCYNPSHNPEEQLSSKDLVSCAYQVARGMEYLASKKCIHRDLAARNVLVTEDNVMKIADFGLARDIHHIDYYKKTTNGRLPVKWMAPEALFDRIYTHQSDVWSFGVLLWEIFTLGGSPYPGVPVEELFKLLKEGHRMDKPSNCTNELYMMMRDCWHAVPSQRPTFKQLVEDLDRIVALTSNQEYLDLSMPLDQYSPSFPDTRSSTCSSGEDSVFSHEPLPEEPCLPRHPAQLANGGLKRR
Chain of human KLB and human FGFR1c co-expressed on HEK293/hKLB/hFGFR1c/SRE-luc cells (human) (Q86Z14 whole entry, chain 1 of 2): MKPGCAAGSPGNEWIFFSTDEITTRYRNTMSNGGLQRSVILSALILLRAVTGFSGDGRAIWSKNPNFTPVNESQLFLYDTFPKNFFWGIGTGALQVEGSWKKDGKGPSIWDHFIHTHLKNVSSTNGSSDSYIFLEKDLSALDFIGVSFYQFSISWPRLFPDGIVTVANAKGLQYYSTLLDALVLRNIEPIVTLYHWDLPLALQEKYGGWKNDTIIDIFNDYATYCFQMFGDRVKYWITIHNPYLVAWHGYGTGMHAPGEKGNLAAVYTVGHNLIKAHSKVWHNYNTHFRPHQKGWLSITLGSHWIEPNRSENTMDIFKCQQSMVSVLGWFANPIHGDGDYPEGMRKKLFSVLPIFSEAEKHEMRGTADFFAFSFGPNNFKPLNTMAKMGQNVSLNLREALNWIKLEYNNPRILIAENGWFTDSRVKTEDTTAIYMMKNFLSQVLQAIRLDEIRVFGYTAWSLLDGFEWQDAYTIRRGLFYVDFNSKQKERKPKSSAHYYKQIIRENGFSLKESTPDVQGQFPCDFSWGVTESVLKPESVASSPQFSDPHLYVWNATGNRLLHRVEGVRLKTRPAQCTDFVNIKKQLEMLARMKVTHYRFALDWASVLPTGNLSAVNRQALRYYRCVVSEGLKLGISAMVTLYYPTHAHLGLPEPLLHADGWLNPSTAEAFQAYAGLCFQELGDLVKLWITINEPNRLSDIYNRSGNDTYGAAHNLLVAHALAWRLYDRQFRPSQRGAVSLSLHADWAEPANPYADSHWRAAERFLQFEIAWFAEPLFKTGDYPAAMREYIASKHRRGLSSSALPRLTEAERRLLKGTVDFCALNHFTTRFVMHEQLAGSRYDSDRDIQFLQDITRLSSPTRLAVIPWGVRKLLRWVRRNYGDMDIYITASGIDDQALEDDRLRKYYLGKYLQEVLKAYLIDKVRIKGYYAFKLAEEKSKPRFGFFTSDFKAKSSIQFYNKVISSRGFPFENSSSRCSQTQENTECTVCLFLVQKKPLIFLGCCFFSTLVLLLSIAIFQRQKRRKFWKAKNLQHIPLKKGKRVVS
Chain of human KLB and human FGFR1c co-expressed on HEK293/hKLB/hFGFR1c/SRE-luc cells (human) (chain, as listed by the source limits assumed, chain 2 of 2): as the sequence (P11362 other isoform, or with tags, fused parts or gaps limits assumed) above
Chain of full-length human KLB on HEK293/hKLB/SRE-luc cells (human) (Q86Z14 whole entry): as the sequence (Q86Z14 whole entry, chain 1 of 2) above
Chain of cell-surface human FGFR1c alone (amino acids 1-731 of NP_075594) on HEK293/hFGFR1c/SRE-Luc cells of Example 19 (human) (P11362 22-822): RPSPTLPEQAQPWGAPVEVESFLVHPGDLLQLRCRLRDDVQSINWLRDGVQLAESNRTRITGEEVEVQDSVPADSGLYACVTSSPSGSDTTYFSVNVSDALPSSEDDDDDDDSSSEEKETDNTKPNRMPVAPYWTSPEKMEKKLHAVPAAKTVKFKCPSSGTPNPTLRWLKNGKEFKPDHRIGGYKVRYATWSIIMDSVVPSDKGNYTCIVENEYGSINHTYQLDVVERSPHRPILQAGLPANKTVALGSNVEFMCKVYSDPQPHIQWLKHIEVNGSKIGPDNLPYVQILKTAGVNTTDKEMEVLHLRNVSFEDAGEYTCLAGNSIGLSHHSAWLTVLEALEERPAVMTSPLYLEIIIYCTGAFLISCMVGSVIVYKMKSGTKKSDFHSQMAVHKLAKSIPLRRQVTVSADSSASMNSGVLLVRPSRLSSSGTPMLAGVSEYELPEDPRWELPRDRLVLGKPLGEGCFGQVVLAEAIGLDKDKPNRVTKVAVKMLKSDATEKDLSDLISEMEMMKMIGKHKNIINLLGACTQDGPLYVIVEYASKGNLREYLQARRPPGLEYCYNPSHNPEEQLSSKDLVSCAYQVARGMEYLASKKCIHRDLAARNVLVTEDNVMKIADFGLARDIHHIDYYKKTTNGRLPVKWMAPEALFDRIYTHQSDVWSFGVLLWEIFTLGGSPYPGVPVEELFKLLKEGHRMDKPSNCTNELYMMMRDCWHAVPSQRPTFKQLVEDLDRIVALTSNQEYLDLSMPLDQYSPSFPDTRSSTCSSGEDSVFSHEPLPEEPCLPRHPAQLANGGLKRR

For Irrelevant IgG control 1 (antibody), the binding ratio to unstained cells was 2 fold in [1], 1 fold in experiment [2] and 1 fold in experiment [3].
For the substance Anti-Mouse IgG Secondary Antibody, the binding ratio to unstained cells in [4], in [5] and in experiment [6] was 1 fold each time.
Turning to Anti-Human IgG Secondary Antibody, the MFI Ratio to unstained cells in [7], in experiment [8] and in [9] was 1 fold in each case. In addition, the binding ratio to unstained cells stood at 1 fold in experiment [4], 2 fold in experiment [5] and 1 fold in [6].
For the substance “human FGF2 (hFGF2; R&D Systems, #233-FB/CF) (from UniProt P09038 143-288) (ligand)”, in experiment [10], the EC50, SRE-luc activation by ligand is 400 pM and 800 pM. In addition, the EC50, SRE-luc activation in [11] came out at 1600 pM.
As for Irrelevant IgG control 2 (antibody), the binding ratio to unstained cells in experiment [1], in [2] and in experiment [3] was 2 fold in each case.

The values above are taken from patent US20170174769A1.
